Measurements taken from patent US20240238263A1, “USE OF PYRIDONE DERIVATIVE CONTAINING HETEROATOM CYCLOBUTANE SUBSTITUENT” (GUANGZHOU JOYO PHARMATECH CO., LTD, priority 2021, published 2024).

System: dorsal skin full-thickness excisional wound in STZ-induced diabetic rats
Assay: Dorsal skin full-thickness excisional wound model in STZ-induced diabetic rats, wound closure
Assay type: in vivo, Wistar rats
Conditions: for Remaining open wound area: GeneTime 0.04 mL topical twice daily
Experimental: In this study, 50 STZ-diabetic rats were used to simulate Type 1 diabetes, with an additional 8 normal rats serving as the control group (normal blank gel control group (without STZ)). The method for modeling the STZ-diabetic rat is as follows: Male Wistar rats were weighed and then intraperitoneally injected with Streptozotocin (STZ, freshly prepared, dissolved in 0.1 M citrate buffer (pH 4.5)) at a dosage of 80 mg/kg. STZ was intraperitoneally injected twice in total, with a 5-day interval between injections. Three days after the second STZ injection, rats with fasting blood glucose levels greater than 250 mg/dl were defined as diabetic model rats. Studies on skin wound healing could be conducted from 1 to 8 weeks after the successful establishment of the diabetic rat model. • 2.
In diabetic model rats, the dorsal skin was marked with a stamp, and full-thickness excision was performed to create a standardized wound area. The day of the full-thickness skin excision surgery was designated as Day 1 of the experiment. The specified surgical procedure was as follows: • 1) Prior to surgery, animals were anesthetized with 2-5% isoflurane. The back was shaved and prepared, and the surgical area was disinfected with iodophor, followed by de-iodination with 75% alcohol. • 2) All animals were marked on the skin of their backs using a stamp with a circular pattern. A circular full-thickness skin excision was performed along the midline of the rat's back, extending down to the fascial layer. […] The surgical site was essentially consistent for each animal; • 3) Post-surgery, every 8-12 hours, 8 mg/kg of bupivacaine (diluted to 0.25% with physiological saline) was injected subcutaneously at the wound site. All animals were closely monitored until they regained consciousness. Animals were monitored daily, and if symptoms of pain persisted, they would continue to receive pain medication. • 4. Drug administration:
All experimental groups were topically administered. Before administering the medication, wounds were rinsed with physiological saline and any residual moisture was absorbed with a sterile cotton swab. Then, the medication was applied. For the GeneTime group, the solution was evenly applied to the wound and surrounding skin, with the dressing changed twice a day. For the other groups, the gel samples were applied from the periphery toward the center, focusing first on the edges of the lesion before covering inward, with the dressing changed twice a day. Medication was applied immediately after the wound model was created, and each group was continuously administered for 18 days. For specific administration information, see Table 2. • 5. Efficacy assessment • 1) Blood glucose monitoring: Blood samples were obtained from all animals via tail vein sampling, and fasting blood glucose levels were measured on days 0/9/18 using a glucometer. • 2) Evaluation of wound closure:
After anesthetizing the rats with isoflurane, a ruler was placed near the wound as a reference scale. Using a digital camera, photos of the wound on the rat's back were taken on days 1, 4, 8, 11, 14, and 18, maintaining a constant focus and pixel condition. The obtained images were processed by software to measure the wound area. • 6. Statistical analysis
Experimental data were expressed as the mean±standard error of the mean (mean±S.E.M.). Statistical analyses were conducted using appropriate methods in software such as Graphpad Prism or SPSS. A p-value of less than 0.05 is considered to indicate a significant difference. • 7. Results • 1) Fasting blood glucose
Remaining Open Wound Area %=Open Wound Area (O)/Initial Wound Area (I)*100%

B1: GeneTime: Recombinant Human Epidermal Growth Factor External Solution, 2000 IU/mL; positive control (protein, UniProt P01133 23-1207, looked up)
Pro-epidermal growth factor: PQHWSCPEGTLAGNGNSTCVGPAPFLIFSHGNSIFRIDTEGTNYEQLVVDAGVSVIMDFHYNEKRIYWVDLERQLLQRVFLNGSRQERVCNIEKNVSGMAINWINEEVIWSNQQEGIITVTDMKGNNSHILLSALKYPANVAVDPVERFIFWSSEVAGSLYRADLDGVGVKALLETSEKITAVSLDVLDKRLFWIQYNREGSNSLICSCDYDGGSVHISKHPTQHNLFAMSLFGDRIFYSTWKMKTIWIANKHTGKDMVRINLHSSFVPLGELKVVHPLAQPKAEDDTWEPEQKLCKLRKGNCSSTVCGQDLQSHLCMCAEGYALSRDRKYCEDVNECAFWNHGCTLGCKNTPGSYYCTCPVGFVLLPDGKRCHQLVSCPRNVSECSHDCVLTSEGPLCFCPEGSVLERDGKTCSGCSSPDNGGCSQLCVPLSPVSWECDCFPGYDLQLDEKSCAASGPQPFLLFANSQDIRHMHFDGTDYGTLLSQQMGMVYALDHDPVENKIYFAHTALKWIERANMDGSQRERLIEEGVDVPEGLAVDWIGRRFYWTDRGKSLIGRSDLNGKRSKIITKENISQPRGIAVHPMAKRLFWTDTGINPRIESSSLQGLGRLVIASSDLIWPSGITIDFLTDKLYWCDAKQSVIEMANLDGSKRRRLTQNDVGHPFAVAVFEDYVWFSDWAMPSVMRVNKRTGKDRVRLQGSMLKPSSLVVVHPLAKPGADPCLYQNGGCEHICKKRLGTAWCSCREGFMKASDGKTCLALDGHQLLAGGEVDLKNQVTPLDILSKTRVSEDNITESQHMLVAEIMVSDQDDCAPVGCSMYARCISEGEDATCQCLKGFAGDGKLCSDIDECEMGVPVCPPASSKCINTEGGYVCRCSEGYQGDGIHCLDIDECQLGEHSCGENASCTNTEGGYTCMCAGRLSEPGLICPDSTPPPHLREDDHHYSVRNSDSECPLSHDGYCLHDGVCMYIEALDKYACNCVVGYIGERCQYRDLKWWELRHAGHGQQQKVIVVAVCVVVLVMLLLLSLWGAHYYRTQKLLSKNPKNPYEESSRDVRSRRPADTEDGMSSCPQPWFVVIKEHQDLKNGGQPVAGEDGQAADGSMQPTSWRQEPQLCGMGTEQGCWIPVSSDKGSCPQVMERSFHMPSYGTQTLEGGVEKPHSLLSANPLWQQRALDPPHQMELTQ
modifications: Pro-epidermal growth factor
notes: Recombinant Human Epidermal Growth Factor External Solution, 2000 IU/mL; positive control
Day 1 (day of surgery)
  Remaining open wound area: 100% ±
Day 4
  Remaining open wound area: 91.82% ±
Day 8
  Remaining open wound area: 52.36% ±
Day 14
  Remaining open wound area: 8.17% ±
Day 18
  Remaining open wound area: 1.79% ±
GeneTime, day 11 after administration, P<0.05
  Change of remaining open wound area % vs model blank gel control group: significantly reduced
